# Substrate: O=C(O)C(=O)O
# Test: purified protein
# Conditions: pH 4.2 (optimum), 52 mM sodium acetate, 140 mM NaCl, 37 °C, potassium oxalate 0-150 mM, Mn enzyme
Protein,Km,kcat,kcat/Km
Oxalate decarboxylase (OxDC) (Bacillus subtilis subsp. subtilis str. 168; H279D/T263E) (protein) MKKQNDIPQPIRGDKGATVKIPRNIERDRQNPDMLVPPETDHGTVSNMKFSFSDTHNRLEKGGYAREVTVRELPISENLASVNMRLKPGAIRELHWHKEAEWAYMIYGSARVTIVDEKGRSFIDDVGEGDLWYFPSGLPHSIQALEEGAEFLLVFDDGSFSENSTFQLTDWLAHTPKEVIAANFGVTKEEISNLPGKEKYIFENQLPGSLKDDIVEGPNGEVPYPFTYRLLEQEPIESEGGKVYIADSTNFKVSKTIASALVEVEPGAMRELHWHPNTDEWQYYISGKARMTVFASDGHARTFNYQAGDVGYVPFAMGHYVENIGDEPLVFLEIFKDDHYADVSLNQWLAMLPETFVQAHLDLGKDFTDVLSKEKHPVVKKKCSK,5 ± 1 mM,111 s⁻¹,22000 M⁻¹ s⁻¹
Oxalate decarboxylase (OxDC) (Bacillus subtilis subsp. subtilis str. 168; H279D/I191F) (protein) MKKQNDIPQPIRGDKGATVKIPRNIERDRQNPDMLVPPETDHGTVSNMKFSFSDTHNRLEKGGYAREVTVRELPISENLASVNMRLKPGAIRELHWHKEAEWAYMIYGSARVTIVDEKGRSFIDDVGEGDLWYFPSGLPHSIQALEEGAEFLLVFDDGSFSENSTFQLTDWLAHTPKEVIAANFGVTKEEFSNLPGKEKYIFENQLPGSLKDDIVEGPNGEVPYPFTYRLLEQEPIESEGGKVYIADSTNFKVSKTIASALVTVEPGAMRELHWHPNTDEWQYYISGKARMTVFASDGHARTFNYQAGDVGYVPFAMGHYVENIGDEPLVFLEIFKDDHYADVSLNQWLAMLPETFVQAHLDLGKDFTDVLSKEKHPVVKKKCSK,5 ± 2 mM,110 s⁻¹,22000 M⁻¹ s⁻¹
Oxalate decarboxylase (OxDC) (Bacillus subtilis subsp. subtilis str. 168; H279D) (protein) MKKQNDIPQPIRGDKGATVKIPRNIERDRQNPDMLVPPETDHGTVSNMKFSFSDTHNRLEKGGYAREVTVRELPISENLASVNMRLKPGAIRELHWHKEAEWAYMIYGSARVTIVDEKGRSFIDDVGEGDLWYFPSGLPHSIQALEEGAEFLLVFDDGSFSENSTFQLTDWLAHTPKEVIAANFGVTKEEISNLPGKEKYIFENQLPGSLKDDIVEGPNGEVPYPFTYRLLEQEPIESEGGKVYIADSTNFKVSKTIASALVTVEPGAMRELHWHPNTDEWQYYISGKARMTVFASDGHARTFNYQAGDVGYVPFAMGHYVENIGDEPLVFLEIFKDDHYADVSLNQWLAMLPETFVQAHLDLGKDFTDVLSKEKHPVVKKKCSK,6 ± 2 mM,58 s⁻¹,10000 M⁻¹ s⁻¹
Oxalate decarboxylase (OxDC) (Bacillus subtilis subsp. subtilis str. 168; Y244R) (protein) MKKQNDIPQPIRGDKGATVKIPRNIERDRQNPDMLVPPETDHGTVSNMKFSFSDTHNRLEKGGYAREVTVRELPISENLASVNMRLKPGAIRELHWHKEAEWAYMIYGSARVTIVDEKGRSFIDDVGEGDLWYFPSGLPHSIQALEEGAEFLLVFDDGSFSENSTFQLTDWLAHTPKEVIAANFGVTKEEISNLPGKEKYIFENQLPGSLKDDIVEGPNGEVPYPFTYRLLEQEPIESEGGKVRIADSTNFKVSKTIASALVTVEPGAMRELHWHPNTHEWQYYISGKARMTVFASDGHARTFNYQAGDVGYVPFAMGHYVENIGDEPLVFLEIFKDDHYADVSLNQWLAMLPETFVQAHLDLGKDFTDVLSKEKHPVVKKKCSK,5 ± 1 mM,95 s⁻¹,19000 M⁻¹ s⁻¹
Oxalate decarboxylase (OxDC) (Bacillus subtilis subsp. subtilis str. 168) (protein) MKKQNDIPQPIRGDKGATVKIPRNIERDRQNPDMLVPPETDHGTVSNMKFSFSDTHNRLEKGGYAREVTVRELPISENLASVNMRLKPGAIRELHWHKEAEWAYMIYGSARVTIVDEKGRSFIDDVGEGDLWYFPSGLPHSIQALEEGAEFLLVFDDGSFSENSTFQLTDWLAHTPKEVIAANFGVTKEEISNLPGKEKYIFENQLPGSLKDDIVEGPNGEVPYPFTYRLLEQEPIESEGGKVYIADSTNFKVSKTIASALVTVEPGAMRELHWHPNTHEWQYYISGKARMTVFASDGHARTFNYQAGDVGYVPFAMGHYVENIGDEPLVFLEIFKDDHYADVSLNQWLAMLPETFVQAHLDLGKDFTDVLSKEKHPVVKKKCSK,7 ± 2 mM,103 s⁻¹,15000 M⁻¹ s⁻¹
Oxalate decarboxylase (OxDC) (Bacillus subtilis subsp. subtilis str. 168; I191F/T263E) (protein) MKKQNDIPQPIRGDKGATVKIPRNIERDRQNPDMLVPPETDHGTVSNMKFSFSDTHNRLEKGGYAREVTVRELPISENLASVNMRLKPGAIRELHWHKEAEWAYMIYGSARVTIVDEKGRSFIDDVGEGDLWYFPSGLPHSIQALEEGAEFLLVFDDGSFSENSTFQLTDWLAHTPKEVIAANFGVTKEEFSNLPGKEKYIFENQLPGSLKDDIVEGPNGEVPYPFTYRLLEQEPIESEGGKVYIADSTNFKVSKTIASALVEVEPGAMRELHWHPNTHEWQYYISGKARMTVFASDGHARTFNYQAGDVGYVPFAMGHYVENIGDEPLVFLEIFKDDHYADVSLNQWLAMLPETFVQAHLDLGKDFTDVLSKEKHPVVKKKCSK,5 ± 1 mM,37 s⁻¹,7000 M⁻¹ s⁻¹
Oxalate decarboxylase (OxDC) (Bacillus subtilis subsp. subtilis str. 168; I191F) (protein) MKKQNDIPQPIRGDKGATVKIPRNIERDRQNPDMLVPPETDHGTVSNMKFSFSDTHNRLEKGGYAREVTVRELPISENLASVNMRLKPGAIRELHWHKEAEWAYMIYGSARVTIVDEKGRSFIDDVGEGDLWYFPSGLPHSIQALEEGAEFLLVFDDGSFSENSTFQLTDWLAHTPKEVIAANFGVTKEEFSNLPGKEKYIFENQLPGSLKDDIVEGPNGEVPYPFTYRLLEQEPIESEGGKVYIADSTNFKVSKTIASALVTVEPGAMRELHWHPNTHEWQYYISGKARMTVFASDGHARTFNYQAGDVGYVPFAMGHYVENIGDEPLVFLEIFKDDHYADVSLNQWLAMLPETFVQAHLDLGKDFTDVLSKEKHPVVKKKCSK,7 ± 2 mM,101 s⁻¹,14000 M⁻¹ s⁻¹

# Reference: article PMC11966277
